From PMC5343656, “The human mitochondrial transcription factor A is a versatile G-quadruplex binding protein”

Assays:
[1] = biological target: T1, TFAM (mature) (human, UniProt Q00059 43-246); assay: intrinsic fluorescence quenching; EMSA: 25 mM Tris-HCl pH 7.0, 90 mM NaCl, 1 mM DTT, 3% glycerol, 0.01% Tween20, 30 min, room temperature; G4s mostly prefolded in 10 mM cacodylate pH 6.5, 100 mM KCl; conditions: protein: recombinant, tags: C-terminal 6xHis
T1 sequence: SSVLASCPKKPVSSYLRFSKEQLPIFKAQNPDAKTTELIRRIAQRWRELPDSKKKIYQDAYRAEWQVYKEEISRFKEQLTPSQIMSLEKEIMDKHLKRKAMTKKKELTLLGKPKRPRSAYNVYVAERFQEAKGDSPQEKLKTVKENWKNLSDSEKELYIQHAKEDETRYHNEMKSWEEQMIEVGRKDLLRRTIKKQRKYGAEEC

[2] = biological target: T1, TFAM (mature); assay: EMSA; EMSA: 25 mM Tris-HCl pH 7.0, 90 mM NaCl, 1 mM DTT, 3% glycerol, 0.01% Tween20, 30 min, room temperature; G4s mostly prefolded in 10 mM cacodylate pH 6.5, 100 mM KCl; conditions: protein: recombinant, tags: C-terminal 6xHis
[3] = biological target: T1, TFAM (mature); assay: competition; vs 32P-dsLSP22; EMSA: 25 mM Tris-HCl pH 7.0, 90 mM NaCl, 1 mM DTT, 3% glycerol, 0.01% Tween20, 30 min, room temperature; G4s mostly prefolded in 10 mM cacodylate pH 6.5, 100 mM KCl; conditions: protein: recombinant; tags: C-terminal 6xHis; label: 5' 32P or SybrGold; G4 parallel tetramer of 4 strands
[4] = biological target: T1, TFAM (mature); assay: EMSA; microscopic k2, two-site fit; k12 0.58; EMSA: 25 mM Tris-HCl pH 7.0, 90 mM NaCl, 1 mM DTT, 3% glycerol, 0.01% Tween20, 30 min, room temperature; G4s mostly prefolded in 10 mM cacodylate pH 6.5, 100 mM KCl; conditions: protein: recombinant; tags: C-terminal 6xHis; label: 5' 32P or SybrGold; G4 parallel tetramer of 4 strands
[5] = biological target: T2, TFAM (mature);TFAM HMG1-L (human;human, UniProt Q00059;Q00059 43-246;43-152, |); assay: EMSA; one TFAM and one or two HMG1-L per G4; EMSA: 25 mM Tris-HCl pH 7.0, 90 mM NaCl, 1 mM DTT, 3% glycerol, 0.01% Tween20, 30 min, room temperature; G4s mostly prefolded in 10 mM cacodylate pH 6.5, 100 mM KCl; conditions: protein: recombinant;recombinant; tags: C-terminal 6xHis;N-terminal His; label: 5' 32P or SybrGold; G4 parallel tetramer of 4 strands
T2 sequence 1: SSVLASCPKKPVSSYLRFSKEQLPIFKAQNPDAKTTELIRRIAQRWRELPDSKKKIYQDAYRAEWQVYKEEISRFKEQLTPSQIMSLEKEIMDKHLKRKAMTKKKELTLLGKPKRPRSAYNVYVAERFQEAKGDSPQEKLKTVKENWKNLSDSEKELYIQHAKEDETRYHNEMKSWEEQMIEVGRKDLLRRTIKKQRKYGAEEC
T2 sequence 2: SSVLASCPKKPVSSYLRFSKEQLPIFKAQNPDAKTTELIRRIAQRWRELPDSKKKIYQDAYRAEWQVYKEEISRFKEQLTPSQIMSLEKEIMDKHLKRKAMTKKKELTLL

[6] = biological target: T1, TFAM (mature); assay: EMSA; microscopic k1, two-site fit; EMSA: 25 mM Tris-HCl pH 7.0, 90 mM NaCl, 1 mM DTT, 3% glycerol, 0.01% Tween20, 30 min, room temperature; G4s mostly prefolded in 10 mM cacodylate pH 6.5, 100 mM KCl; conditions: protein: recombinant; tags: C-terminal 6xHis; label: 5' 32P or SybrGold; G4 parallel tetramer of 4 strands
[7] = biological target: T1, TFAM (mature); assay: competition; homo-competition, 32P-G4-LSP22H; EMSA: 25 mM Tris-HCl pH 7.0, 90 mM NaCl, 1 mM DTT, 3% glycerol, 0.01% Tween20, 30 min, room temperature; G4s mostly prefolded in 10 mM cacodylate pH 6.5, 100 mM KCl; conditions: protein: recombinant; tags: C-terminal 6xHis; label: 5' 32P or SybrGold; G4 parallel tetramer of 4 strands
[8] = biological target: T3, TFAM (mature);TFAM HMG1 (human;human, UniProt Q00059;Q00059 43-246;43-125, |); assay: EMSA; one TFAM and one HMG1 per G4; EMSA: 25 mM Tris-HCl pH 7.0, 90 mM NaCl, 1 mM DTT, 3% glycerol, 0.01% Tween20, 30 min, room temperature; G4s mostly prefolded in 10 mM cacodylate pH 6.5, 100 mM KCl; conditions: protein: recombinant;recombinant; tags: C-terminal 6xHis;; label: 5' 32P or SybrGold; G4 parallel tetramer of 4 strands
T3 sequence 1: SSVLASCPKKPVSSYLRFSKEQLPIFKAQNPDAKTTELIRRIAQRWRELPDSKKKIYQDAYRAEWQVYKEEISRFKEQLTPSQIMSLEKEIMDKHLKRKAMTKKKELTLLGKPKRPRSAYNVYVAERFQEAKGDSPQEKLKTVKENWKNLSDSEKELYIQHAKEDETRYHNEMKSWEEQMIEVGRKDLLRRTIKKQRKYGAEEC
T3 sequence 2: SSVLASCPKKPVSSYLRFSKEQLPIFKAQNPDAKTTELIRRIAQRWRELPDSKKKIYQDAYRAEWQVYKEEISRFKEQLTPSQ

[9] = biological target: T1, TFAM (mature); assay: competition; vs 32P CSBII G4-DNA/RNA; EMSA: 25 mM Tris-HCl pH 7.0, 90 mM NaCl, 1 mM DTT, 3% glycerol, 0.01% Tween20, 30 min, room temperature; G4s mostly prefolded in 10 mM cacodylate pH 6.5, 100 mM KCl; conditions: protein: recombinant; tags: C-terminal 6xHis; duplex
[10] = biological target: T1, TFAM (mature); assay: EMSA; similar to unmodified c-myc; EMSA: 25 mM Tris-HCl pH 7.0, 90 mM NaCl, 1 mM DTT, 3% glycerol, 0.01% Tween20, 30 min, room temperature; G4s mostly prefolded in 10 mM cacodylate pH 6.5, 100 mM KCl; conditions: protein: recombinant; tags: C-terminal 6xHis; intramolecular G4
[11] = biological target: T1, TFAM (mature); assay: EMSA; single shift; EMSA: 25 mM Tris-HCl pH 7.0, 90 mM NaCl, 1 mM DTT, 3% glycerol, 0.01% Tween20, 30 min, room temperature; G4s mostly prefolded in 10 mM cacodylate pH 6.5, 100 mM KCl; conditions: protein: recombinant; tags: C-terminal 6xHis; G4 tetramer of 4 strands
[12] = label: 5' 32P or SybrGold, G4 parallel tetramer of 4 strands
[13] = label: 5' 32P, G4 tetramer of 4 strands

B1: dsLSP22 (dsDNA)
DNA 1: GTTAGTTGGGGGGTGACTGTTA
DNA 2: TAACAGTCACCCCCCAACTAAC
Q: What does the source list for B1?
A: binding signal ([1]; label: 5' 32P (EMSA), blunt): ~50 % Trp quenching; Kd ([2]; label: 5' 32P (EMSA), blunt): 9.2 nM

B2: CSBII G4-DNA (EMSA) (structured_DNA)
DNA: GAAGCGGGGGAGGGGGGGTTTGGTGGAAAT
Q: Which Kd ([2]; label: 5' 32P, G4, purified bimolecular) does the source give for B2 here?
A: 3.65 nM

B3: G4-LSP22H (structured_DNA)
DNA: GTTAGTTGGGGGGTGACTGTTA
Q: For B3, which binding signal [3] is on record?
A: 1.6 fold excess for 50% displacement

Q: What about the binding signal [1, 12] of the same binder?
A: ~70 % Trp quenching

Q: And the Kd [2, 12]?
A: 0.65 nM

Q: And the Ka [4]?
A: 0.69 ± 0.25 10^9 M^-1

Q: Does B3 bind [5]?
A: binds

Q: And the Ka [6]?
A: 0.61 ± 0.12 10^9 M^-1

Q: And the binding signal [7]?
A: 10 fold excess for 50% free probe

Q: Does B3 bind [8]?
A: binds

B4: CSBII DNA/RNA heteroduplex competitor (DNA:RNA)
RNA: GAAGCGGGGGAGGGGGGGUUUGGUGGAAAU
DNA: ATTTCCACCAAACCCCCCCTCCCCCGCTTC
Q: Which binding signal [9] does the source give for B4 here?
A: ~80 % free probe at 500-fold excess

B5: G4-LSPas (structured_DNA)
DNA: AATAATGTGTTAGTTGGGGGGTG
Q: What does the source list for B5?
A: binding signal [1, 13]: ~70 % Trp quenching; Kd [2, 13]: 0.89 nM

B6: CSBII G4-RNA (structured_RNA)
RNA: GAAGCGGGGGAGGGGGGGUUUGGUGGAAAU
Q: With B6 as the binder, how does the Kd ([2]; label: 5' 32P, G4 bimolecular) read?
A: 1.25 nM

B7: c-myc G4 extended (structured_DNA)
DNA: TCTGAGGGTGGGTAGGGTGGGTAACT
Q: Does B7 bind [10]?
A: binds

B8: (TAGTTG6T)4 (structured_DNA)
DNA: TAGTTGGGGGGT
Q: Does B8 bind [11]?
A: binds

B9: (TG6T)4 (structured_DNA)
DNA: TGGGGGGT
Q: Does B9 bind ([2]; G4 tetramer of 4 strands)?
A: no binding

B10: CSBII G4-DNA/RNA (mixed)
DNA: GAAGCGGGGGAGGGGGGGTTTGGTGGAAAT
RNA: GAAGCGGGGGAGGGGGGGUUUGGUGGAAAU
Q: B10 was tested. Which Kd ([2]; label: 5' 32P, hybrid G4 bimolecular) did it give?
A: 1.85 nM

B11: c-myc G4 (structured_DNA)
DNA: TGAGGGTGGGTAGGGTGGGTAA
Q: How did the Kd ([2]; label: 5' 32P, intramolecular G4, parallel by CD) turn out when B11 was run?
A: 53 nM

B12: ILPR G4 (structured_DNA)
DNA: ACAGGGGTGTGGGGACAGGGGTGTGGGG
Q: B12 was tested. Which Kd ([2]; label: 5' 32P, intramolecular G4, mostly antiparallel by CD) did it give?
A: 118 nM

B13: ILPR G4 extended (structured_DNA)
DNA: TCACAGGGGTGTGGGGACAGGGGTGTGGGGTGACT
Q: Which Kd ([2]; intramolecular G4) does the source give for B13 here?
A: ~26 nM

B14: (TG6TGACT)4 (structured_DNA)
DNA: TGGGGGGTGACT
Q: For B14, which Kd [11] is on record?
A: 5 nM
